Positions count from the first letter of the chain named.

The target of one data set is T1, mouse TIFA(1−150) (mouse, UniProt Q793I8 1-150).
T1 sequence (looked up): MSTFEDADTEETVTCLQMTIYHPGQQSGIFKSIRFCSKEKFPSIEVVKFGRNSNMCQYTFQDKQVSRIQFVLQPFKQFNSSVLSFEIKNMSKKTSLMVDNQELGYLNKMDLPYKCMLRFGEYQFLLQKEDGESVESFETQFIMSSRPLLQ
Kind of data set: SEC.

For the next data set, the target named is T2, mouse TIFA(1−150/C36S) (mouse, UniProt Q793I8 1-150, C36S).
T2 sequence (looked up): T1 sequence (looked up) with C36S
Kind of data set: crystal structure.

The data set “SEC” deals with the molecule itself. Nature of the data set: SEC. (In general: Size exclusion chromatography separates by hydrodynamic size, large species first.)

B1: mouse TIFAB, full length, coexpressed with TIFA (natural protein, UniProt Q8JZM6 1-147, looked up)
chain: MERPLTVLQVSLYHPTQGPVAFAHVPQQLQHDASRLLVGRGQNTHLQLQLPQLSRYHLSLEPYLEKGSSLLAFCLKVLTRKSCVWVNGLPLRYLEQVPLGTINRISFSGIQMLVRKEGGASLETFVCYFHLSPSPLIYRPKAQETDE
Turning to B1, the binding result with mouse TIFA(1−150) is reported as “binds”.

B2: mouse TIFAB(1−139) (domain or fragment, UniProt Q8JZM6 1-139, looked up)
chain: MERPLTVLQVSLYHPTQGPVAFAHVPQQLQHDASRLLVGRGQNTHLQLQLPQLSRYHLSLEPYLEKGSSLLAFCLKVLTRKSCVWVNGLPLRYLEQVPLGTINRISFSGIQMLVRKEGGASLETFVCYFHLSPSPLIYR
For the molecule B2, in the data set with mouse TIFA(1−150/C36S), the binding result is reported as “binds”.

B3: mouse TIFA dimer (natural protein, UniProt Q793I8 1-184, looked up)
chain: MSTFEDADTEETVTCLQMTIYHPGQQSGIFKSIRFCSKEKFPSIEVVKFGRNSNMCQYTFQDKQVSRIQFVLQPFKQFNSSVLSFEIKNMSKKTSLMVDNQELGYLNKMDLPYKCMLRFGEYQFLLQKEDGESVESFETQFIMSSRPLLQENNWPTQNPIPEDGMYSSYFTHRSSPSEMDENEL
As usually defined, the stoichiometry N is the number of molecules, sites or subunits per partner or assembly. Consider B3, for which the “stoichiometry N” value in the data set “SEC” was found to be 2.

The values are drawn from paper PMC10945758 (Proceedings of the National Academy of Sciences of the …, 2024).
